This series in a line: protein stability index of a GFP-peptide fusion (GPS, HEK-293T) (PSI 1-6); higher = more stable.
Where [1] appears, read: treatment: DMSO, c terminus: a fixed tail appended.
Where [2] appears, read: treatment: MLN4924 1 uM, 8 h, c terminus: a fixed tail appended.
Setting [3] is: treatment: DMSO, c terminus: native.
The mark [4] stands for this setting: treatment: MLN4924 1 uM, 8 h, c terminus: native.

± gives the standard deviation.
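Further: 24-mer peptide tiles fused after GFP, lentivirally expressed, FACS-sorted into six equal bins by GFP/DsRed ratio, decoded by Illumina sequencing, PSI is the read-weighted mean bin number.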

Regarding AAAVLFRMSEDKPQDYKKRLSVEL [CTNNB1], the protein stability index under setting [1] is 2.62 ± 0.31 and the protein stability index under setting [2] worked out at 2.25 ± 0.27.

As to AAAYSPSEALLYALVHDHQAYAHY [ANKRD9], the protein stability index stood at 2.05 ± 0.14 under setting [1] and 2.27 ± 0.28 under setting [2].

As for AALSERGQAEEELIKAKSQARLEE [LRRC45], the protein stability index by setting is: under setting [1], 5.28 ± 0.55; under setting [2], 5.39 ± 0.46. AAPDCTPSLEAGNPAPAAPCPLGE [MYCL] had a protein stability index under setting [1] of 5.42 ± 0.25 and a protein stability index under setting [2] of 5.49 ± 0.26.

For the sequence AAWIGGFLHSLVQFLFIYQLPFCG [OR4A15], the protein stability index is, setting by setting: under setting [1], 3.92 ± 0.8; under setting [2], 3.21 ± 0.6.

ACGDAFTVAIGAESEVYSWGKGAR [NEK8]: the protein stability index is, setting by setting: under setting [1], 2.84 ± 0.23; under setting [2], 2.77 ± 0.3.

ACGVILYILLVGYPPFWDEDQHRL [CAMK2D] registered a protein stability index under setting [1] of 2.6 ± 0.9 and a protein stability index under setting [2] of 2.63 ± 0.51. On the same counts, the results for ACYAGAAPAPSQVKSKAKKTVDKH [CEBPB] are 4.95 ± 0.33 and 5.09 ± 0.39. In the same order, the values of ADDPDDGPVPGTPGLPGSTGNPKS [SPNS1] are 5.47 ± 0.39 and 5.49 ± 0.35.

Take ADGSLRMDDPKGDFITLYQMASQS [M1AP]: the protein stability index under setting [1] came out at 3.58 ± 0.083 and the protein stability index under setting [2] stood at 3.53 ± 0.15. On the same counts, the results for ADIFRIYAPEAPYTSPDKLKDIFM [PDS5B] are 2.06 ± 0.11 and 2.1 ± 0.21.

As for ADISQMLVCTADGDIHLSPEEPAA [TAF7L], the protein stability index was determined as 4.93 ± 0.17 under setting [1] and 4.94 ± 0.077 under setting [2]. Consider AEEETLSRELEPELRRRRYEYDHW [ALKBH7], for which the protein stability index by setting is: under setting [1], 4.35 ± 0.29; under setting [2], 4.59 ± 0.22.

As to AEFQSLFSLLEELKEGMLMKIKQD [FSD1], the protein stability index by setting is: under setting [1], 2.21 ± 0.36; under setting [2], 2.33 ± 0.2. In the same order, the values of AEGALEEVPLEVLRQRESKWLDML [TBC1D10A] are 4.09 ± 0.88 and 3.91 ± 0.47. On the same counts, the results for AEKSGEATDGARPQALPEPMQESK [CHGA] are 5.47 ± 0.3 and 5.48 ± 0.22.

With AERYGLSGSDVLDNVAYARAFNTD [RAD51], the protein stability index by setting is: under setting [1], 3.99 ± 0.2; under setting [2], 4.07 ± 0.32.

Regarding AFYDVTGGMSHLHTFRATFQEPLY [TRIM14], the protein stability index turned out to be 2.31 ± 0.25 under setting [1] and 2.41 ± 0.5 under setting [2]. Turning to AGEFTGWEKVGSGGFGQVYKVRHV [RIPK4], the protein stability index is, setting by setting: under setting [1], 2.46 ± 0.61; under setting [2], 2.25 ± 0.29. AGEVVCEAIKNEMNVMLKSSPVDL [IMPA1]: the protein stability index is, setting by setting: under setting [1], 3.67 ± 0.91; under setting [2], 4.11 ± 0.25.

For the sequence AGIVRVFSGTPPPPVLSFRLVHTT [FCHO1], the protein stability index reads like this: under setting [1], 1.99 ± 0.07; under setting [2], 2.13 ± 0.57. On to AGPGGGAERRRAGRLLLTLPLLRQ [ESRRA], for which the protein stability index reads like this: under setting [1], 2.53 ± 0.29; under setting [2], 2.84 ± 0.21. On to AGQEGEDTLRRRLLAPEAGSHPQQ [TOR1AIP2], for which the protein stability index reads like this: under setting [1], 3.22 ± 0.89; under setting [2], 3.8 ± 0.52. For AGTAGHPPSGSQPLTSTQGLEHAA [FBF1], the protein stability index by setting is: under setting [1], 4.84 ± 0.11; under setting [2], 4.89 ± 0.35. For AHAGAVHNGKIYISGGVHNGEYVP [KLHL14], the protein stability index reads like this: under setting [1], 3.03 ± 0.28; under setting [2], 2.82 ± 0.41. Consider AIHSSDEGEDQAGDEDEDDEWDD [WAS], for which the protein stability index was 5.06 ± 0.3 under setting [3] and 5.25 ± 0.29 under setting [4]. For AILSLDQIKAIRGSNEYTEGPSVV [SPRY1], the protein stability index turned out to be 3 ± 0.072 under setting [1] and 2.98 ± 0.3 under setting [2]. As to AIQDQLPRLQQLLKTLEEGLEGLE [FANCE], the protein stability index is, setting by setting: under setting [1], 3.61 ± 0.32; under setting [2], 3.68 ± 0.23. With AKKKRLTKADIGTPSNFQHIGHVG [WASL], the protein stability index was 3.52 ± 0.3 under setting [1] and 3.67 ± 0.18 under setting [2].

With AKVGPGLPDGCQPLQLLREMRQAL [CBY2], the protein stability index runs as follows: under setting [1], 2.73 ± 0.57; under setting [2], 2.82 ± 0.33. In the case of ALHIIVQYNRPISDFLTLHSIIIS [FEM1B], the protein stability index was 3.03 ± 1 under setting [1] and 2.37 ± 0.56 under setting [2]. As to ALLWLSCSIALLRALATSNARAQQ [GNAS], the protein stability index under setting [1] was 3.21 ± 0.51 and the protein stability index under setting [2] was 2.99 ± 0.25. In turn, ALSEQKAQDLGELLATAEQEQLSL [LRRC45] returned a protein stability index under setting [1] of 5.07 ± 0.36 and a protein stability index under setting [2] of 5.27 ± 0.1. With ALVRWWNGIGAVLDFTHPKARDWF [MYORG], the protein stability index by setting is: under setting [1], 2.59 ± 0.52; under setting [2], 2.3 ± 0.51. With APDFVGDILWEHLEQMIKENQEKT [ETS2], the protein stability index stood at 4.44 ± 0.13 under setting [1] and 4.58 ± 0.14 under setting [2]. The sequence APNRFFQKLNVFKNFIGLLQNQNF [NLN] returned a protein stability index under setting [2] of 2.24 ± 0.82. Take APPLPDSPQPLASSPGPWGLEALA [FCHO1]: the protein stability index is 4.43 ± 0.16 under setting [1] and 3.99 ± 0.18 under setting [2].

As to APSPSPVTPAQNNLLQPNFEAAFG [SNAP91], the protein stability index reads like this: under setting [1], 4.43 ± 0.089; under setting [2], 4.54 ± 0.38. Regarding APVSRGRDSYGGPPRREPLPSRRD [RBMX], the protein stability index amounted to 5.12 ± 0.21 under setting [1] and 4.93 ± 0.22 under setting [2].

For APYFERSSSKRYTMSRSLDGASVN [EPB41L3], the protein stability index is 3.3 ± 0.33 under setting [1] and 3.44 ± 0.7 under setting [2]. As to AQAHRIHIDPEIQDGSPTTSRRPS [PDLIM4], the protein stability index by setting is: under setting [1], 5.31 ± 0.43; under setting [2], 5.34 ± 0.22.

For the sequence AQDPDVGTNTVSFYTLSPNSHFSL [PCDHGC5], the protein stability index was found to be 2.57 ± 0.26 under setting [1] and 2.61 ± 0.3 under setting [2]. In the case of AQRQACMYASSAPPSEPVPSLEDI [TBX5], the protein stability index was 4.92 ± 0.14 under setting [1] and 4.96 ± 0.077 under setting [2]. Regarding ARGAGPPEPLRICPLHISVKEELD [TRIM35], the protein stability index reads like this: under setting [1], 4.59 ± 0.19; under setting [2], 4.86 ± 0.4. Consider ARGGAVSARYVLPDEAARARLLQE [DUSP5], for which the protein stability index is 4.63 ± 0.16 under setting [1] and 4.54 ± 0.34 under setting [2].

Consider ARRRVCHTEDFQKEEGTVNGASWH [CPXM2], for which the protein stability index reads like this: under setting [1], 4.57 ± 0.16; under setting [2], 4.71 ± 0.84. On the same counts, the results for ARVKAFNKTGVSPYSKTLVLQTSE [TRIM9] are 3.2 ± 0.28 and 3.34 ± 0.21.

As for ASDMFRRLRDAGFRVTLWVHPFVN [MYORG], the protein stability index came out at 2.23 ± 0.17 under setting [1] and 2.13 ± 0.053 under setting [2]. For ASKCKGAAVKLADFGLAIEVQGDQ [CAMK2B], the protein stability index is, setting by setting: under setting [1], 3.5 ± 0.28; under setting [2], 3.6 ± 0.37. In the same order, the values of ASKWGMSYDELCFLEQRPQSPTLE [EDARADD] are 3.67 ± 0.12 and 3.81 ± 0.062. As for ASLENSLEETKGRYCMQLSQIQGL [KRT16], the protein stability index under setting [1] was determined as 3.3 ± 0.39 and the protein stability index under setting [2] was 3.17 ± 0.25.

With ASLNGYRLGERVLQVSFKTSKQHK [ELAVL3], the protein stability index by setting is: under setting [1], 3.45 ± 0.13; under setting [2], 3.52 ± 0.32. Sequence ASRVKLQHLPAQEQWDRLLVLYPT [PLEKHN1] yielded a protein stability index under setting [1] of 2.21 ± 0.14 and a protein stability index under setting [2] of 2.41 ± 0.35.

On to ASSGGAGAAVGTGSSYPTTTISYL [JUNB], for which the protein stability index by setting is: under setting [1], 2.8 ± 0.34; under setting [2], 2.79 ± 0.39. As to ASVPKVETVKSDNKDDDIDIDAI [EIF5], the protein stability index worked out at 5.59 ± 0.17 under setting [3] and 5.53 ± 0.22 under setting [4]. For ATKFKQLYRSRMNSLEMTPAVRQR [HMOX1], the protein stability index is, setting by setting: under setting [1], 3.32 ± 0.21; under setting [2], 3.56 ± 0.27. ATRGVPAKRLLDADDAAAVAAKCP [TRIB1] showed a protein stability index under setting [1] of 4.39 ± 1.5.

For the sequence AVKDGLIVETLTVGCKGSKAGIEQ [ZMYND11], the protein stability index is, setting by setting: under setting [1], 3.57 ± 0.14; under setting [2], 3.48 ± 0.22. AVPVSTSKPSSDLLDLQPDFSSGG [SNAP91] registered a protein stability index under setting [1] of 4.76 ± 0.17 and a protein stability index under setting [2] of 4.84 ± 0.14.

AWEKLLAAFPNLANLSRTQLLHLG [KLHDC10]: the protein stability index reads like this: under setting [1], 2.06 ± 0.27; under setting [2], 2.1 ± 0.11. AWETKKILAVSFAPLIQPCHSESG [PCMTD2]: the protein stability index was found to be 2.35 ± 0.2 under setting [1] and 2.54 ± 0.35 under setting [2]. In the same order, the values of AWIWHDCHRHYHSMEVFTHYDLLN [LOXL2] are 2.41 ± 0.14 and 3 ± 1.2. On to AYNHRTDLFKSFPGPMDWVPRYTG [ADAMTS4], for which the protein stability index came out at 2.89 ± 0.14 under setting [1] and 2.82 ± 0.11 under setting [2]. On the same counts, the results for CCQWLKPKMRSKEQILELLVLEQF [ZNF449] are 2.46 ± 0.51 and 2.46 ± 0.52. Regarding CDPSRIYKPQTRLKRKQPVRKRQ [DFFB], the protein stability index by setting is: under setting [3], 3.96 ± 0.36; under setting [4], 4.15 ± 0.13. For the sequence CEITKRRRKACQACRFTKCLRVGM [ESRRA], the protein stability index is, setting by setting: under setting [1], 2.26 ± 0.17; under setting [2], 2.32 ± 0.22. Consider CGNIKAPSLQAWNDAPCDKTFLFI [CD207], for which the protein stability index by setting is: under setting [1], 2.72 ± 0.41; under setting [2], 2.49 ± 0.55.

For CHHLPVIRQLATSGRFIVIIPRTV [SMG5], the protein stability index reads like this: under setting [1], 2.52 ± 0.6; under setting [2], 2.56 ± 0.33. On the same counts, the results for CISKNEWIQFNHPYTEKPRLWHTA [KLHDC2] are 2.43 ± 0.48 and 2.36 ± 0.3. Regarding CKLTCQAQALGYYYVLEPRVVDGT [ADAMTS4], the protein stability index under setting [1] is 2.86 ± 2 and the protein stability index under setting [2] is 2.77 ± 1.1. Sequence CLSTWLLHFIATNYLIFSQKPEFQ [RHOBTB3] displayed a protein stability index under setting [1] of 3.09 ± 0.19 and a protein stability index under setting [2] of 3.22 ± 0.2. On to CMFCLYSFMPLVIKVTSATSVNLG [SLC35F2], for which the protein stability index turned out to be 2.91 ± 0.72 under setting [1] and 2.73 ± 0.41 under setting [2]. Consider CMGAMSLFLPCLLCYPPAKGCLKL [SPRY1], for which the protein stability index is 2.8 ± 0.56 under setting [1] and 3.04 ± 0.83 under setting [2].

The values are drawn from the supplement of paper PMC10567573.
